This is an account of results in patent publication US20060246541A1.

The target of this experiment is GPIIb/IIIa (integrin αIIbβ3). In words: cell-based or functional assay.

For the substance “native contortrostatin (from UniProt Q805F6 419-482) (ligand)”, the IC50, inhibition of ADP-induced platelet aggregation was 60 nM.
